One block for each substance: values may come before it.
Experiments:
[1] = molecular target: GST-syntaxin 1A deletion mutant Syn 1A17 (amino acids 4-240) (Schistosoma japonicum; rat); assay: 20S complex on GST-Syn 1A17 beads, ATP and Mg++, Western blot densitometry
[2] = molecular target: GST-syntaxin 1A H3 domain construct Syn 1A16 (amino acids 191-266) (Schistosoma japonicum; rat); assay: 20S complex on GST-Syn 1A16 beads, ATP and Mg++, Western blot densitometry
[3] = molecular target: GST-syntaxin 1A H3 domain construct Syn 1A16 (amino acids 191-266) (Schistosoma japonicum; rat); assay: 20S complex assembly on GST-syntaxin beads with all four proteins together, ATP, 18° C. overnight MgCl2, Western blot densitometry, FIG. 6B
[4] = molecular target: GST-syntaxin 1A cytoplasmic domain fusion protein (Syn 1A11, amino acids 4-266), immobilized on glutathione agarose beads (Schistosoma japonicum; rat); assay: as above
[5] = molecular target: GST-syntaxin 1A deletion mutant Syn 1A13 (amino acids 4-221) (Schistosoma japonicum; rat); assay: as above
[6] = molecular target: GST-syntaxin 1A deletion mutant Syn 1A17 (amino acids 4-240) (Schistosoma japonicum; rat); assay: as above
[7] = molecular target: GST-syntaxin 1A deletion mutant Syn 1A6 (amino acids 4-190) (Schistosoma japonicum; rat); assay: as above
[8] = molecular target: GST-syntaxin 1A cytoplasmic domain fusion protein (Syn 1A11, amino acids 4-266), immobilized on glutathione agarose beads (Schistosoma japonicum; rat); assay: 20S complex assembly on GST-syntaxin beads with SNAP-25, VAMP, α-SNAP and NSF added together, ATP, 25° C., Western blot densitometry, FIG. 6A
[9] = molecular target: GST-syntaxin 1A H3 domain construct Syn 1A16 (amino acids 191-266) (Schistosoma japonicum; rat); assay: 20S complex assembly on GST-syntaxin beads with all four proteins together, ATPγS, 18° C. overnight MgCl2, Western blot densitometry, FIG. 6B
[10] = molecular target: GST-syntaxin 1A cytoplasmic domain fusion protein (Syn 1A11, amino acids 4-266), immobilized on glutathione agarose beads (Schistosoma japonicum; rat); assay: as above
[11] = molecular target: GST-syntaxin 1A deletion mutant Syn 1A13 (amino acids 4-221) (Schistosoma japonicum; rat); assay: as above
[12] = molecular target: GST-syntaxin 1A deletion mutant Syn 1A17 (amino acids 4-240) (Schistosoma japonicum; rat); assay: as above
[13] = molecular target: GST-syntaxin 1A deletion mutant Syn 1A6 (amino acids 4-190) (Schistosoma japonicum; rat); assay: as above
[14] = molecular target: GST-syntaxin 1A cytoplasmic domain fusion protein (Syn 1A11, amino acids 4-266), immobilized on glutathione agarose beads (Schistosoma japonicum; rat); assay: 20S complex assembly on GST-syntaxin beads with SNAP-25, VAMP, α-SNAP and NSF added together, ATPγS, 25° C., Western blot densitometry, FIG. 6A
[15] = molecular target: GST-syntaxin 1A (Syn1A11) point mutant 12 (four point mutations) (Schistosoma japonicum; rat); assay: GST-syntaxin point mutant on glutathione beads, soluble ligand, Western blot densitometry, FIG. 5B
[16] = molecular target: GST-syntaxin 1A (Syn1A11) point mutant 13 (four point mutations) (Schistosoma japonicum; rat); assay: as above
[17] = molecular target: GST-syntaxin 1A (Syn1A11) point mutant 34 (Schistosoma japonicum; rat); assay: as above
[18] = molecular target: GST-syntaxin 1A (Syn1A11) point mutant 45 (Schistosoma japonicum; rat); assay: as above
[19] = molecular target: GST-syntaxin 1A (Syn1A11) point mutant M1: R198A, I202A (Schistosoma japonicum; rat); assay: as above
[20] = molecular target: GST-syntaxin 1A (Syn1A11) point mutant M2: L205A, I209A (Schistosoma japonicum; rat); assay: as above
[21] = molecular target: GST-syntaxin 1A (Syn1A11) point mutant M3: L212A, F216A (Schistosoma japonicum; rat); assay: as above
[22] = molecular target: GST-syntaxin 1A (Syn1A11) point mutant M4: V223A, Q226A (Schistosoma japonicum; rat); assay: as above
[23] = molecular target: GST-syntaxin 1A (Syn1A11) point mutant M5: I230A, I233A (Schistosoma japonicum; rat); assay: as above
[24] = molecular target: GST-syntaxin 1A (Syn1A11) point mutant M6: A240V, V244A (Schistosoma japonicum; rat); assay: as above
[25] = molecular target: GST-syntaxin 1A cytoplasmic domain fusion protein (Syn 1A11, amino acids 4-266), immobilized on glutathione agarose beads (Schistosoma japonicum; rat); assay: GST-syntaxin 1A (wild type) on glutathione beads, soluble ligand, Western blot densitometry, FIG. 5B
[26] = molecular target: GST-syntaxin 1A deletion mutant Syn 1A4 (amino acids 8-76) (Schistosoma japonicum; rat); assay: GST-syntaxin deletion mutant on glutathione beads, soluble ligand, Western blot densitometry; FIG. 4C row 1 from top, row label only in the figure (assigned by Table 1 order and paragraph 328)
[27] = molecular target: GST-syntaxin 1A deletion mutant Syn 1A5 (amino acids 4-114) (Schistosoma japonicum; rat); assay: GST-syntaxin deletion mutant on glutathione beads, soluble ligand, Western blot densitometry; FIG. 4C row 2 from top, row label only in the figure (assigned by Table 1 order and paragraph 328)
[28] = molecular target: GST-syntaxin 1A deletion mutant Syn 1A6 (amino acids 4-190) (Schistosoma japonicum; rat); assay: GST-syntaxin deletion mutant on glutathione beads, soluble ligand, Western blot densitometry; FIG. 4C row 3 from top, row label only in the figure (assigned by Table 1 order and paragraph 328)
[29] = molecular target: GST-syntaxin 1A deletion mutant Syn 1A13 (amino acids 4-221) (Schistosoma japonicum; rat); assay: GST-syntaxin deletion mutant on glutathione beads, soluble ligand, Western blot densitometry; FIG. 4C row 4 from top, row label only in the figure (assigned by Table 1 order and paragraph 328)
[30] = molecular target: GST-syntaxin 1A deletion mutant Syn 1A17 (amino acids 4-240) (Schistosoma japonicum; rat); assay: GST-syntaxin deletion mutant on glutathione beads, soluble ligand, Western blot densitometry; FIG. 4C row 5 from top, row label only in the figure (assigned by Table 1 order and paragraph 328)
[31] = molecular target: VAMP 2 cytoplasmic domain (amino acids 1-94), recombinant, immobilized on the SPR flow cell (rat); assay: SPR (BIAcore), VAMP 2 cytoplasmic domain immobilized
[32] = molecular target: VAMP 2 cytoplasmic domain (amino acids 1-94), recombinant, immobilized on the SPR flow cell (rat); assay: SPR (BIAcore), VAMP 2 cytoplasmic domain immobilized; KD = kd/ka

Chain of His-tagged NSF (N-ethylmaleimide-sensitive factor), soluble recombinant (P18708 whole entry): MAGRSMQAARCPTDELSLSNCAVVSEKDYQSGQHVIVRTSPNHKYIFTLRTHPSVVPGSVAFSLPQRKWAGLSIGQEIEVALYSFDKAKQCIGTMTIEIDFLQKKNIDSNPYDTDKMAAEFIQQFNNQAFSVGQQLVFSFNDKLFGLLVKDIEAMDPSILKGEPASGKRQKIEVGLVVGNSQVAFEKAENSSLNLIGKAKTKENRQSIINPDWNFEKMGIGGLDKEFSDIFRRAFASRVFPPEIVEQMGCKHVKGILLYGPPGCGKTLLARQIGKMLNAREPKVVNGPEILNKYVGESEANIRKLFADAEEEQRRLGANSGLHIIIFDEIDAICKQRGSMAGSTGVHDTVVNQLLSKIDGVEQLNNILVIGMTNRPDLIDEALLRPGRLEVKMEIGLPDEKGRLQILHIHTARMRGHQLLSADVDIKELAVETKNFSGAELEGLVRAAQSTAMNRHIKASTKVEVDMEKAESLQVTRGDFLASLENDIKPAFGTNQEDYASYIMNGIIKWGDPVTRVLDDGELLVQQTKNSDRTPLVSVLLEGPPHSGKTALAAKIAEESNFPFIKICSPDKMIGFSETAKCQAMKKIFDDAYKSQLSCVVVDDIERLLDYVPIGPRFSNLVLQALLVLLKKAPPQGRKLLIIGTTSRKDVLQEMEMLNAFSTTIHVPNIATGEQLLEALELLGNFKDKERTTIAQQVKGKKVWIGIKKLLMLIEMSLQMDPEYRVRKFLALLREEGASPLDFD
Chain of VAMP 2 cytoplasmic domain (amino acids 1-94), recombinant, immobilized on the SPR flow cell (rat) (chain, as listed by the source): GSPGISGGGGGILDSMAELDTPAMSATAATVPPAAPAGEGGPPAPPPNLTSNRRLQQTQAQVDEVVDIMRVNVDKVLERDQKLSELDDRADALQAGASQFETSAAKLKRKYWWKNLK
Chain of syntaxin 1A carboxyl-terminal domain (amino acids 194-267), soluble recombinant (chain): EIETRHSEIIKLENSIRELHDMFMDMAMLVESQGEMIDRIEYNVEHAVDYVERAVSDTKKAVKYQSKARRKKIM

percent dissociated in the presence of ATP and Mg++ [1]: 30%
percent dissociated in the presence of ATP and Mg++ [2]: 11%
densitometry pixel value [3]: 357 pixel value
densitometry pixel value [4]: 92 pixel value
densitometry pixel value [5]: 12 pixel value
densitometry pixel value [6]: 198 pixel value
densitometry pixel value [7]: 0 pixel value
densitometry pixel value [8]: 362 pixel value
densitometry pixel value [9]: 319 pixel value
densitometry pixel value [10]: 163 pixel value
densitometry pixel value [11]: 46 pixel value
densitometry pixel value [12]: 295 pixel value
densitometry pixel value [13]: 0 pixel value
densitometry pixel value [14]: 1590 pixel value
Substance: His-tagged NSF (N-ethylmaleimide-sensitive factor), soluble recombinant (from UniProt P18708) (enzyme)

densitometry pixel value [15]: 618 pixel value
densitometry pixel value [16]: 79 pixel value
densitometry pixel value [17]: 353 pixel value
densitometry pixel value [18]: 7 pixel value
densitometry pixel value [19]: 522 pixel value
densitometry pixel value [20]: 779 pixel value
densitometry pixel value [21]: 554 pixel value
densitometry pixel value [22]: 623 pixel value
densitometry pixel value [23]: 15 pixel value
densitometry pixel value [24]: 687 pixel value
densitometry pixel value [25]: 1070 pixel value
densitometry pixel value [26]: 0 pixel value
densitometry pixel value [27]: 0 pixel value
densitometry pixel value [28]: 0 pixel value
densitometry pixel value [29]: 84 pixel value
densitometry pixel value [30]: 2450 pixel value
Substance: n-sec1, soluble recombinant (from UniProt P61765)

koff [31]: 0.0022 s⁻¹
kon [31]: 470 M⁻¹ s⁻¹
Kd [32]: 4.7 µM
Substance: syntaxin 1A carboxyl-terminal domain (amino acids 194-267), soluble recombinant
